Source: patent US9364412B2, “Electrostatically controlled hydrogels” (University of Utah Research Foundation, priority 2005, dated 2016)
Each block holds one molecule with its values, some of them ahead of it. Where no end group is shown, it is not given here.

Assays:
[1] = Solubility of peptide in buffer (observation); format: physicochemical
[2] = Salt-induced gelation (NaCl added to peptide solution); format: physicochemical; conditions: for final NaCl concentration for salt-induced gelation: peptides dialyzed in 30 mM buffer, pH 6.0
Experimental: For pH-induced gelation, dialyzed peptide solutions in vials were exposed to vapors of acetic acid (acid-induced gelation) or ammonium hydroxide (base-induced gelation). […] For salt-induced gelation, saturated sodium chloride solution was added into the dialyzed stock peptide solution so that the final peptide concentration in the hydrogel was 1 wt %. For mixing-induced gelation, dialyzed peptide solutions were mixed at 1:1 weight ratio such that the final total peptide concentration was 1 wt %.
The salt concentration necessary to induce gelation was quite high as indicated by FIG. 2. All peptides were dialyzed in 30 mM buffer and needed a much higher concentration to trigger hydrogelation.

[3] = target: T1, SEQ ID NO 9, Acetyl-EWEAEAEAEA-amide (negatively charged module); experiment: small-angle X-ray scattering of the mixed peptide pair
T1 construct: also called EAW10
T1 peptide: Ac-EWEAEAEAEA-NH2
Experimental: (§1) A small-angle x-ray scattering instrument was used for measurements at 25° C. This instrument has a slit geometry and all analyses were corrected for this. The angular dependence of the scattering of x-rays from particles in a solvent has the form:
(§2) Transmission electron microscopic (TEM) images of all hydrogels show the formation of fibrous network (FIG. 20). However, the drying step involved in the sample preparation for TEM might cause peptide fibers to aggregate further, giving rise to very heterogeneous samples that were difficult to characterize accurately in terms of fiber thickness, estimated very approximately as ~30 nm (diameter). Therefore, small angle X-ray scattering (SAXS) was used to probe the hydrated fibrous network with minimal perturbations to the samples. The measured scattering intensity (I(Q)) increased over time for each of the biomaterials, indicative of the formation of aggregates and consistent with a growing fibril networks (FIG. 18). […] The trend of the gelation kinetics is evident in FIG. 18, and also in the summary of the structural parameters that can be determined using P(r) analysis (Table 4). The kinetics of the formation of these structures is distinctive among the peptide pairs, with the SEQ ID NO 10:SEQ ID NO 11 pair reaching equilibrium most rapidly (between 15 min and 1 h) and the SEQ ID NO 9:SEQ ID NO 8 pair taking more than 11 hours before its small-angle scattering pattern becomes evident. The overall gelation kinetics monitored by SAXS follows a clear order of SEQ ID NO 10:SEQ ID NO 11>SEQ ID NO 9:SEQ ID NO 11>SEQ ID NO 10:SEQ ID NO 8>SEQ ID NO 9:SEQ ID NO 8. The order of gelation kinetics can be directly correlated to the total electrostatic and hydrophobic interactions among the oligopeptide pairs, which is highest for the SEQ ID NO 10:SEQ ID NO 11 pair and least for the SEQ ID NO 9:SEQ ID NO 8 pair. Among the two unequal chain length pairs, kinetics of SEQ ID NO 9:SEQ ID NO 11 (13 charged and 12 apolar amino acids) was faster than SEQ ID NO 10:SEQ ID NO 8 (12 charged and 13 apolar amino acids).

[4] = target: T2, SEQ ID NO 10, Acetyl-WEAEAEAEAEAEAEA-amide (negatively charged module); experiment: as above
T2 construct: Synthetic designed 15-mer
T2 peptide: Ac-WEAEAEAEAEAEAEA-NH2
Experimental: as §1, §2

[5] = target: T3, SEQ ID NO 5; experiment: mixing-induced co-assembly into hydrogel, dynamic rheometry
T3 construct: All peptides were made on Rink Amide resin; also called member of the serine pair
T3 peptide: EWESESESES-NH2

[6] = target: T4, SEQ ID NO 1, Acetyl-EWEVEVEVEV-amide (negatively charged module); experiment: as above
T4 construct: Synthetic designed decapeptide; also called Acetyl-EW(EV)4-amide; negatively-charged peptide module
T4 peptide: Ac-EWEVEVEVEV-NH2

solubility at pH 7 [1]: did not appear to be high enough
Molecule: Ac-WKVKVKVKVK-NH2 [SEQ ID NO 3, Acetyl-WKVKVKVKVK-amide]

Molecule: Acetyl-EWEVEVEVEV-amide (Ac-EWEVEVEVEV-NH2) [SEQ ID NO 1, negatively charged peptide module]
state of sample at 1.5 M NaCl ([2]; 1.5 M salt concentration): still a viscous solution | final NaCl concentration for salt-induced gelation [2]: 3 M

Molecule: Acetyl-KWKVKVKVKVKVKVK-amide (Ac-KWKVKVKVKVKVKVK-NH2) [SEQ ID NO 2, positively charged peptide module]
final NaCl concentration for salt-induced gelation [2]: 1.5 M

binding result [3]: binds | binding result [4]: binds
Molecule: Ac-WKAKAKAKAK-NH2 (also called KAW10) [SEQ ID NO 8, Acetyl-WKAKAKAKAK-amide (positively charged module)]

binding result [5]: binds
B1: SEQ ID NO 4 (peptide)
peptide: WKSKSKSKSK-NH2
notes: All peptides were made on Rink Amide resin; also called member of the serine pair

binding result [6]: binds
B2: SEQ ID NO 3, Acetyl-WKVKVKVKVK-amide (positively charged module) (peptide)
peptide: Ac-WKVKVKVKVK-NH2
notes: Synthetic designed decapeptide; also called Acetyl-WK(VK)4-amide; positively-charged peptide module

binding result [3]: binds | binding result [4]: binds
Molecule: Ac-KWKAKAKAKAKAKAK-NH2 (Synthetic designed 15-mer) [SEQ ID NO 11, Acetyl-KWKAKAKAKAKAKAK-amide (positively charged module)]

binding result [6]: binds
Molecule: Ac-KWKVKVKVKVKVKVK-NH2 (Synthetic designed 15-mer) [SEQ ID NO 2, Acetyl-KWKVKVKVKVKVKVK-amide (positively charged module)]
